Read-outs that look alike come from different tables or passages of the source.
Legend:
[1] = target: T1, Claudin18.2 on cells (human, UniProt P56856-2 1-261); experiment: cell-based or functional assay
[2] = target: T1, Claudin18.2 on cells; experiment: cell-based or functional assay; remark: listed apart in the source
[3] = target: T1, Claudin18.2 on cells; experiment: flow cytometry on NUGC4 cells, antibody at 3 µg/mL
Procedure: (§1) Each candidate antibody was serially diluted with FACS buffer (sterile PBS, 0.2% BSA), and added to the 96-well round-bottom plate at 50 μL/well before an incubation at 4° C. for 1 h. The supernatant was discarded after centrifugation at 2000 rpm for 3 min.

[4] = target: T1, Claudin18.2 on cells; experiment: flow cytometry on NUGC4 cells, antibody at 1.5 µg/mL
Procedure: as §1

[5] = target: T1, Claudin18.2 on cells; experiment: flow cytometry on NUGC4 cells, antibody at 0.75 µg/mL
Procedure: as §1

[6] = target: T1, Claudin18.2 on cells; experiment: flow cytometry on 293T-Claudin18.2 cells, antibody at 3 µg/mL
Procedure: as §1

[7] = target: T2, Claudin18.1 on cells (human, UniProt P56856 1-261); experiment: flow cytometry on 293T-Claudin18.1 cells, antibody at 3 µg/mL
T2 construct: whole, on cells
Procedure: as §1

[8] = target: T1, Claudin18.2 on cells; experiment: flow cytometry on 293T-Claudin18.2 cells, antibody at 1.5 µg/mL
Procedure: as §1

[9] = target: T2, Claudin18.1 on cells; experiment: flow cytometry on 293T-Claudin18.1 cells, antibody at 1.5 µg/mL
Procedure: as §1

[10] = target: T1, Claudin18.2 on cells; experiment: flow cytometry on 293T-Claudin18.2 cells, antibody at 0.75 µg/mL
Procedure: as §1

[11] = target: T2, Claudin18.1 on cells; experiment: flow cytometry on 293T-Claudin18.1 cells, antibody at 0.75 µg/mL
Procedure: as §1

[12] = target: T1, Claudin18.2 on cells; experiment: flow cytometry on 293T-Claudin18.2 cells, antibody at 0.375 µg/mL
Procedure: as §1

[13] = target: T2, Claudin18.1 on cells; experiment: flow cytometry on 293T-Claudin18.1 cells, antibody at 0.375 µg/mL
Procedure: as §1

[14] = target: T1, Claudin18.2 on cells; experiment: cell-based or functional assay; remark: listed apart in the source
[15] = target: T1, Claudin18.2 on cells; experiment: flow cytometry on NUGC4 cells, antibody at 3 µg/mL; remark: listed apart in the source
Procedure: as §1

[16] = target: T1, Claudin18.2 on cells; experiment: flow cytometry on NUGC4 cells, antibody at 1.5 µg/mL; remark: listed apart in the source
Procedure: as §1

[17] = target: T1, Claudin18.2 on cells; experiment: flow cytometry on NUGC4 cells, antibody at 0.75 µg/mL; remark: listed apart in the source
Procedure: as §1

[18] = target: T1, Claudin18.2 on cells; experiment: cell-based or functional assay; remark: listed apart in the source
[19] = target: T1, Claudin18.2 on cells; experiment: flow cytometry on 293T-Claudin18.2 cells, antibody at 1.5 µg/mL; remark: listed apart in the source
Procedure: as §1

[20] = target: T1, Claudin18.2 on cells; experiment: flow cytometry on 293T-Claudin18.2 cells, antibody at 0.75 µg/mL; remark: listed apart in the source
Procedure: as §1

[21] = target: T1, Claudin18.2 on cells; experiment: flow cytometry on 293T-Claudin18.2 cells, antibody at 0.375 µg/mL; remark: listed apart in the source
Procedure: as §1

Row | Binder | ADCC inhibition rate, %, antibody 0.1 µg/mL, 293T-Claudin18.2 target cells, PBMC effectors, LDH [1] [%] | ADCC inhibition rate, %, antibody 1 µg/mL, 293T-Claudin18.2 target cells, PBMC effectors, LDH [1] [%] | ADCC inhibition rate, %, antibody 10 µg/mL, 293T-Claudin18.2 target cells, PBMC effectors, LDH [1] [%] | ADCC EC50 (µg/mL), NUGC4 target cells, Jurkat reporter effector cells, Bio-Glo [2] [µg/mL] | mean fluorescence intensity [3] | mean fluorescence intensity [4] | mean fluorescence intensity [5] | mean fluorescence intensity [6] | mean fluorescence intensity [7] | mean fluorescence intensity [8] | mean fluorescence intensity [9] | mean fluorescence intensity [10] | mean fluorescence intensity [11] | mean fluorescence intensity [12] | mean fluorescence intensity [13] | ADCC EC50 (µg/mL), NUGC4 target cells, Jurkat reporter effector cells, Bio-Glo [14] [µg/mL] | mean fluorescence intensity [15] | mean fluorescence intensity [16] | mean fluorescence intensity [17] | also measured
1 | CLDQ1-CA841-IgG1 (antibody, V domains shown, Complete IgG1 made in HEK293 cells) VH: QVQLVQSGAEVKKPGSSVKVSCKASGGTFSSYAISWVRQAPGQGLEWMGRIIPILGIANYAQKFQGRVTVTADKSTSTAYMELSSLRSEDTAVYYCARERDNWDPYYYYYGMDVWGQGTTVTVSS VL: DIQMTQSPSTLSASVGDRVTITCRASQSINSWLAWYQQKPGKAPKLLIYKASSLESGVPSRFSGSGSGTEFTLTISSLQPDDFATYYCQQYNSFPLTFGGGTKVEIKR | 15.6 | 27.2 | 58.5 | 17.3 | 32400 | 13200 | 11100 | 1.09e+06 | 11000 | 855000 | 37900 | 583000 | 18100 | 308000 | 21500 | – | – | – | – | –
2 | CLD389-CA802-IgG1 (antibody, V domains shown, Complete IgG1 made in HEK293 cells) VH: QVQLVESGGGVVQPGRSLRLSCAASGFTFSSYAMHWVRQVPGKGLEWVAIISYDGSIKYYADSVKGQFTISRDNSKNTLSLQMNSLRPEDTAVYYCARDPTMVRGVRGMDVWGQGTTVTVSS VL: DIQMTQSPSSLSASVGDRVTITCRASQGIRNDLGWYQQKPGKAPKLLIYAASSLQSGVPSRFSGSGSGTDFTLTISSLQPEDFATYYCLQDYNYPLTFGGGTKLEIKR | 25.6 | 61.4 | 61.2 | – | 113000 | 58100 | 24400 | 1.23e+06 | 194000 | 1.05e+06 | 163000 | 774000 | 141000 | 495000 | 96700 | 15.7 | – | – | – | –
3 | CLD389-CA852-IgG1 (antibody, V domains shown, Complete IgG1 made in HEK293 cells) VH: QVQLVESGGGVVQPGRSLRLSCAASGFTFSSYAMHWVRQAPGKGLEWVAVISYDGSKKYYADSVKGRFTISRDNSKNTLYLQMNSLRAEDTAVYYCARDPTMVRGVRGMDVWGQGTTVTVSS VL: EIVMTQSPSTLSASIGDRVTITCRASQGIRNDLGWYQQKPGKAPKLLIYAASSLQSGVPSRFSGSGSGTDFTLTISSLQPEDFATYYCLQDYNYPLTFGGGTKVEIKR | -0.212 | 12.3 | 39.9 | – | – | – | – | 742000 | – | 578000 | – | 365000 | – | 196000 | – | – | 18400 | 12000 | 9230 | –
4 | IMAB362 (antibody, human IgG1, kappa, V domains shown) VH: QVQLQQPGAELVRPGASVKLSCKASGYTFTSYWINWVKQRPGQGLEWIGNIYPSDSYTNYNQKFKDKATLTVDKSSSTAYMQLSSPTSEDSAVYYCTRSWRGNSFDYWGQGTTLTVSS VL: DIVMTQSPSSLTVTAGEKVTMSCKSSQSLLNSGNQKNYLTWYQQKPGQPPKLLIYWASTRESGVPDRFTGSGSGTDFTLTISSVQAEDLAVYYCQNDYSYPFTFGSGTKLEIKR | 20.8 | 41.4 | 60.6 | 2.15 | 131000 | 97100 | 69600 | 902000 | – | 849000 | – | 689000 | – | 498000 | – | 2.56 | 117000 | 93500 | 55400 | ADCC inhibition rate, %, antibody 0.5 µg/mL, 293T-Claudin18.2 target cells, PBMC effectors, LDH [18]: 18%; ADCC inhibition rate, %, antibody 5 µg/mL, 293T-Claudin18.2 target cells, PBMC effectors, LDH [18]: 45%; ADCC inhibition rate, %, antibody 50 µg/mL, 293T-Claudin18.2 target cells, PBMC effectors, LDH [18]: 49%; mean fluorescence intensity [19]: 878000; mean fluorescence intensity [20]: 650000; mean fluorescence intensity [21]: 407000
5 | CLD389-279-IgG1 (antibody, V domains shown, Complete IgG1 made in HEK293 cells; also called C279; CLD389-C279) VH: EVQLVQSGGGVVQPGRSLRLSCAASGFTFSNYAMHWVRQAPGKGLEWVAVISYDGSNKYYADSVKGRFTISRDNSKNTLYLQMNSLRAEDTAVYYCARELRFFDWLLGRAFDIWGQGTMVTVSS VL: EIVMTQSPPSLSASVGDRVTITCRASQGIRNDLGWYQQKPGKAPKLLIYAASSLQSGVPSRFSGSGSGTDFTLTISSLQPEDFATYYCLQDYNYPWTFGQGTKLEIKR | 7.53 | 16.1 | 41 | – | 158000 | 78300 | 40000 | 1.24e+06 | – | 1.06e+06 | – | 776000 | – | 488000 | – | 0.81 | – | – | – | –
